Our source for the protein stability index values is the supplement of paper PMC10567573.

This data set can be described thus: protein stability index of a GFP-peptide fusion (GPS, HEK-293T) (PSI 1-6); higher = more stable.
Setting [1] is: treatment: DMSO, c terminus: a fixed tail appended.
[2] abbreviates: treatment: MLN4924 1 uM, 8 h, c terminus: a fixed tail appended.

± gives the standard deviation.
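Note: 24-mer peptide tiles fused after GFP, lentivirally expressed, FACS-sorted into six equal bins by GFP/DsRed ratio, decoded by Illumina sequencing, PSI is the read-weighted mean bin number.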

Consider ARIRSHSWLESCIVGWRCRVGQWV [GMPPB], for which the protein stability index under setting [1] amounted to 2.27 ± 0.3 and the protein stability index under setting [2] stood at 2.262 ± 0.009.

Regarding HTAKCEKLQKEKEELERRFEDEVK [MTUS2], the protein stability index turned out to be 5.57 ± 0.26 under setting [1] and 5.6 ± 0.07 under setting [2].

Turning to RDIDLKNRRGGPPFAFVEFEDPRD [SRSF1], the protein stability index is, setting by setting: under setting [1], 4.03 ± 0.35; under setting [2], 4.27 ± 0.18.

With MVLLTMIARVADGLPLAASMQEDE [SEC22B], the protein stability index worked out at 3.26 ± 0.71 under setting [1] and 2.94 ± 0.2 under setting [2].

In the case of IQVEDIRIRAILSTYRKRTPVMEG [LOXL2], the protein stability index is, setting by setting: under setting [1], 2.13 ± 0.48; under setting [2], 2.16 ± 0.35.

Regarding PPPPIDNGDITSFLLSVYAPGSSV [CFHR2], the protein stability index reads like this: under setting [1], 2.66 ± 0.33; under setting [2], 2.65 ± 0.37.

PKSPATPKQLRLINQPLPDLKNVK [MAP2] showed a protein stability index under setting [1] of 4.51 ± 0.27 and a protein stability index under setting [2] of 4.793 ± 0.034.

For the sequence KMVPRYDLNRHLDEMCANNDFVQV [FAN1], the protein stability index was found to be 2.81 ± 0.15 under setting [1] and 2.8 ± 0.46 under setting [2].

Turning to VTPKKSPPPKTNLTPGQSDSAKRE [FAN1], the protein stability index was determined as 5.22 ± 0.33 under setting [1] and 5.35 ± 0.33 under setting [2].

VTFREENTIAFRHLFLLGYSDGAD [MCOLN1] showed a protein stability index under setting [1] of 2.38 ± 0.2 and a protein stability index under setting [2] of 2.2 ± 0.11.

Take KDKEYAEIIRKQVSATKAEAEKDG [UBE2R2]: the protein stability index by setting is: under setting [1], 5.39 ± 0.29; under setting [2], 5.38 ± 0.21.

As for QDGLPPTWRDFRTLEAFHDTCRQ [MED27], the protein stability index amounted to 4.16 ± 0.27 (treatment: DMSO, c terminus: native) and 4.21 ± 0.4 (treatment: MLN4924 1 uM, 8 h, c terminus: native).

Take SPHEMLQAVVLCSKKTFQITKQGD [USP39]: the protein stability index was 3.34 ± 0.39 under setting [1] and 3.4 ± 0.28 under setting [2].

MAAAQEADGARSAVVAAGGGSSGQ [CLPTM1] registered a protein stability index under setting [1] of 5.36 ± 0.26 and a protein stability index under setting [2] of 5.29 ± 0.2.

With EEEERDQALQAKASLTIPLVPETE [YJU2B], the protein stability index under setting [1] is 5.42 ± 0.16 and the protein stability index under setting [2] turned out to be 5.5 ± 0.12.

In the case of SPREGEELKPEDKDPRDPEESKEP [GNAS], the protein stability index under setting [1] was determined as 5.78 ± 0.14 and the protein stability index under setting [2] worked out at 5.71 ± 0.26.

Consider GKGEGPIWLDNLHCTGNEATLAAC [LOXL2], for which the protein stability index reads like this: under setting [1], 3.43 ± 0.23; under setting [2], 3.52 ± 0.57.

As for GFRLAEDGKRCRRKDVCKSTHHGC [MATN2], the protein stability index came to 3.99 ± 0.66 under setting [1] and 4.09 ± 0.42 under setting [2].

With GPLPVKRGPPPRSGGPPPKRSAPS [RBMX], the protein stability index by setting is: under setting [1], 4.49 ± 0.39; under setting [2], 4.85 ± 0.25.

TPSEEHMKNKNNVTEFILLGLTQN [OR4A15]: the protein stability index runs as follows: under setting [1], 3.26 ± 0.33; under setting [2], 3.21 ± 0.21.

Consider FEDLPLQEPQSPQKLNPGFDLAKG [PLAGL1], for which the protein stability index was 5.03 ± 0.14 under setting [1] and 4.83 ± 0.19 under setting [2].

As to SKSTQFEYAWCLVRSKYNDDIRKG [FIS1], the protein stability index runs as follows: under setting [1], 2.26 ± 0.34; under setting [2], 2.55 ± 0.56.

With SNNNGRIKQLRSGGTPIRGALQIE [PTPRD], the protein stability index reads like this: under setting [1], 3.76 ± 0.33; under setting [2], 3.85 ± 0.36.

Take WVYSGRRGVHCWVCDESVRKLSSA [PRIM1]: the protein stability index under setting [1] came out at 2.51 ± 0.84 and the protein stability index under setting [2] turned out to be 3.04 ± 0.39.

Consider ENILMCVDDAYVRRMAAEATEWQK [SRPK2], for which the protein stability index reads like this: under setting [1], 3.52 ± 0.26; under setting [2], 3.55 ± 0.17.

DPKRRMTIAQSLEHSWIKAIRRRN [DAPK3]: the protein stability index by setting is: under setting [1], 3.67 ± 0.33; under setting [2], 3.91 ± 0.35.

On to DERRRLLEQKTQESQKKKQQDDSD [ZNF207], for which the protein stability index amounted to 5.54 ± 0.33 under setting [1] and 5.53 ± 0.25 under setting [2].

KYRSYEEFKADAQLLLHNTVIFYG [ZMYND11]: the protein stability index runs as follows: under setting [1], 2 ± 0.46; under setting [2], 2.07 ± 0.33.

For PQLGLDGPGEPDVRDGFSATFEKI [PSD2], the protein stability index reads like this: under setting [1], 4.73 ± 0.18; under setting [2], 4.67 ± 0.13.
